The data set is described as follows: Properties of the purified amino acid dehydrogenase (specific activity, action temperature and pH), NADH decline at 340 nm. Particulars: 30° C., pH 9.0, phenylpyruvic acid substrate; 1 unit = 1 μmol NADH consumed in 1 minute. It is filed as biochemical, Rhodococcus qingshengii strain KNK2108. How it is done:
In the embodiments, the amino acid dehydrogenase activity of the polypeptide can be measured, for example, based on the rate of decline in the absorbance at a wavelength of 340 nm when 1.2 mL of 0.5 M NH3/NH4Cl buffer (pH 9.0), 0.2 mL of 0.1 M sodium carbonate buffer (pH 9.0) containing 3 mM NADH coenzyme, and 0.1 mL of an appropriately diluted enzyme solution are added to 1.5 mL of 0.1 M sodium carbonate buffer (pH 9.0) containing 10 mM phenylpyruvic acid as substrate and a reaction is run for 1 minute at 30° C. In the embodiments, the amino acid dehydrogenase activity was measured using this method unless indicated otherwise.
The activity of the amino acid dehydrogenase was measured based on the rate of decline in the absorbance at a wavelength of 340 nm when 1.2 mL of 0.5 M NH3/NH4Cl buffer (pH 9.0), 0.2 mL of 0.1 M sodium carbonate buffer (pH 9.0) that contained 3 mM NADH coenzyme, and 0.1 mL of the appropriately diluted enzyme solution were added to 1.5 mL of 0.1 M sodium carbonate buffer (pH 9.0) that contained 10 mM phenylpyruvic acid substrate and a reaction was carried out for 1 minute at 30° C. 1 unit is defined here as the quantity of enzyme that consumed 1 μmol NADH in 1 minute. The protein was quantified by the Bradford method using BSA as the reference protein.
The action temperature range and the optimal temperature were examined. […]

B1: purified amino acid dehydrogenase: amino acid dehydrogenase purified from Rhodococcus qingshengii strain KNK2108 (Example 1), SEQ ID NO:1, classified as phenylalanine dehydrogenase (protein, listed as Rhodococcus qingshengii)
chain: MSIDDELRWDGELTVTRHDRETGTTFVIRIDSTRLGPASGGTRAAHYPSIGHALADAGKLAGAMTLKMAVSDLPMGGGKSVIALPAPRNQIDAATWSRILGIHAENIDKLEGNYWTGPDVNTNSSDMDQLSRTTRYVFGRSVDKGGAGSSAHATALGVFEAMKATARRRGLGTLDGRTVLVQGLGAVGGDVVRLAAQAGARLLVADTDPQRLEAASLAGHTVVPAGEVLRTPCDLFAPCAMGGIIDFAAAASIPTLAVAGAANNILTDAAAGEVLRDRGVLCAPDFVANAGGAFHLVGREVLGWNEDYVVERTRGIGRTLDEVYSLSEERGITTEAAALMLARARLSPASTAAAATSAAPAAAAASPA
B1 displayed a specific activity of 204 units/mg protein.

The values above are taken from US9267116B2, “Amino acid dehydrogenase, and process for producing L-amino acid, 2-oxo acid or D-amino acid” (KANEKA CORPORATION, priority 2008, dated 2016).
